# Changes are numbered by the printed parent chain. Names may count otherwise.
# B1: T049M: single-substitution thermolysin variant (SEQ ID NO:3 numbering) (protein, listed as Geobacillus caldoproteolyticus)
# chain: ITGTSTVGVGRGVLGDQKNINTTYSTYYYLQDNTRGNGIFTYDAKYRTMLPGSLWADADNQFFASYDAPAVDAHYYAGVTYDYYKNVHNRLSYDGNNAAIRSSVHYSQGYNNAFWNGSQMVYGDGDGQTFIPLSGGIDVVAHELTHAVTDYTAGLIYQNESGAINEAISDIFGTLVEFYANKNPDWEIGEDVYTPGISGDSLRSMSDPAKYGDPDHYSKRYTGTQDNGGVHINSGIINKAAYLISQGGTHYGVSVVGIGRDKLGKIFYRALTQYLTPTSNFSQLRAAAVQSATDLYGSTSQEVASVKQAFDAVGVK
# B2: Q273T: single-substitution thermolysin variant (SEQ ID NO:3 numbering) (protein, listed as Geobacillus caldoproteolyticus)
# chain: B1 chain with M49T, Q273T
# B3: T278Y: single-substitution thermolysin variant (SEQ ID NO:3 numbering) (protein, listed as Geobacillus caldoproteolyticus)
# chain: B1 chain with M49T, T278Y
# B4: T278N: single-substitution thermolysin variant (SEQ ID NO:3 numbering) (protein, listed as Geobacillus caldoproteolyticus)
# chain: B1 chain with M49T, T278N
# B5: N280M: single-substitution thermolysin variant (SEQ ID NO:3 numbering) (protein, listed as Geobacillus caldoproteolyticus)
# chain: B1 chain with M49T, N280M
# B6: A056R: single-substitution thermolysin variant (SEQ ID NO:3 numbering) (protein, listed as Geobacillus caldoproteolyticus)
# chain: B1 chain with M49T, A56R
# B7: N280L: single-substitution thermolysin variant (SEQ ID NO:3 numbering) (protein, listed as Geobacillus caldoproteolyticus)
# chain: B1 chain with M49T, N280L
# B8: N280E: single-substitution thermolysin variant (SEQ ID NO:3 numbering) (protein, listed as Geobacillus caldoproteolyticus)
# chain: B1 chain with M49T, N280E
# B9: Q273N: single-substitution thermolysin variant (SEQ ID NO:3 numbering) (protein, listed as Geobacillus caldoproteolyticus)
# chain: B1 chain with M49T, Q273N
# B10: T278S: single-substitution thermolysin variant (SEQ ID NO:3 numbering) (protein, listed as Geobacillus caldoproteolyticus)
# chain: B1 chain with M49T, T278S
# B11: A058S: single-substitution thermolysin variant (SEQ ID NO:3 numbering) (protein, listed as Geobacillus caldoproteolyticus)
# chain: B1 chain with M49T, A58S
# B12: Q273A: single-substitution thermolysin variant (SEQ ID NO:3 numbering) (protein, listed as Geobacillus caldoproteolyticus)
# chain: B1 chain with M49T, Q273A
# B13: A056Y: single-substitution thermolysin variant (SEQ ID NO:3 numbering) (protein, listed as Geobacillus caldoproteolyticus)
# chain: B1 chain with M49T, A56Y
# B14: T006A: single-substitution thermolysin variant (SEQ ID NO:3 numbering) (protein, listed as Geobacillus caldoproteolyticus)
# chain: B1 chain with T6A, M49T
# B15: N280I: single-substitution thermolysin variant (SEQ ID NO:3 numbering) (protein, listed as Geobacillus caldoproteolyticus)
# chain: B1 chain with M49T, N280I
# B16: S065T: single-substitution thermolysin variant (SEQ ID NO:3 numbering) (protein, listed as Geobacillus caldoproteolyticus)
# chain: B1 chain with M49T, S65T
# B17: S065I: single-substitution thermolysin variant (SEQ ID NO:3 numbering) (protein, listed as Geobacillus caldoproteolyticus)
# chain: B1 chain with M49T, S65I
# B18: Q273W: single-substitution thermolysin variant (SEQ ID NO:3 numbering) (protein, listed as Geobacillus caldoproteolyticus)
# chain: B1 chain with M49T, Q273W
# B19: T278C: single-substitution thermolysin variant (SEQ ID NO:3 numbering) (protein, listed as Geobacillus caldoproteolyticus)
# chain: B1 chain with M49T, T278C
# B20: G196D: single-substitution thermolysin variant (SEQ ID NO:3 numbering) (protein, listed as Geobacillus caldoproteolyticus)
# chain: B1 chain with M49T, G196D
# B21: N280S: single-substitution thermolysin variant (SEQ ID NO:3 numbering) (protein, listed as Geobacillus caldoproteolyticus)
# chain: B1 chain with M49T, N280S
# B22: I156H: single-substitution thermolysin variant (SEQ ID NO:3 numbering) (protein, listed as Geobacillus caldoproteolyticus)
# chain: B1 chain with M49T, I156H
# B23: T278H: single-substitution thermolysin variant (SEQ ID NO:3 numbering) (protein, listed as Geobacillus caldoproteolyticus)
# chain: B1 chain with M49T, T278H
# B24: I156K: single-substitution thermolysin variant (SEQ ID NO:3 numbering) (protein, listed as Geobacillus caldoproteolyticus)
# chain: B1 chain with M49T, I156K
# B25: G196H: single-substitution thermolysin variant (SEQ ID NO:3 numbering) (protein, listed as Geobacillus caldoproteolyticus)
# chain: B1 chain with M49T, G196H
# Experiment: Stability assay in 25% TIDE 2X detergent with DTPA (residual Abz-AGLA-Nba protease activity)
# Assay type: physicochemical
# Conditions: 60 min at 32°C; variant residual AGLA activity divided by wild-type residual activity
# Protocol: The stability of thermolysin and variants thereof was measured after incubation under defined conditions in the presence of 25% TIDE® 2× detergent. The initial and residual activity was determined.
# MTPs were obtained from Costar (type 9017) and from Greiner (black plate, type 655076). Test Method Unstressed Conditions:
# First, 20 μl thermolysin containing culture supernatant was diluted with 180 μl MES assay buffer. Then, 20 μl diluted supernatant was diluted further with 180 μl MES assay buffer. Subsequently 10 μl of this dilution was transferred into 190 μl AGLA-substrate solution in a pre-warmed plate (Greiner 655076) at 25° C. Any air bubbles present were blown away and the plate was measured according to the AGLA protease assay protocol described below.
# First, 20 μl of culture supernatant was diluted with 180 μl 27.5% TIDE®+detergent solution and placed in the iEMS shaker. The plate covered with a plate seal was incubated for a total of 60 minutes at 32° C. at 900 rpm. In addition, 20 μl of culture supernatant was diluted with 180 μl 27.5% TIDE®−solution and placed in the iEMS shaker. This plate covered with a plate seal was incubated for a total of 180 minutes at 50° C. at 900 rpm.
# Subsequently after the respective incubations, 20 μl of either of these solutions were diluted with 180 μl MES assay buffer and 10 μl of this dilution were diluted with 190 μl AGLA-substrate solution in a pre-warmed plate (Greiner 655076) at 25° C.
# Fluorescence measurements were taken at excitation of 350 nm and emission of 420 nm. The spectrofluorometer software calculated the reaction rates (=slope) of the increase in fluorescence for each well to a linearly regressed line of (milli-) RFU/min. The ratio of the residual and initial AGLA activity was used to express the 25% TIDE® 2× stability as follows: Percentage of residual activity=[slope of stressed]*100/[slope of unstressed]
# For each sample (thermolysin and variants thereof) the performance index was calculated by dividing the residual activity of the variant by the residual activity of thermolysin. The performance index compared the stability of the variant and the standard thermolysin enzyme (e.g., wild type or parental enzyme), determined under the same conditions.
# In these experiments, the liberation of Abz-AG by protease cleavage of Abz-AGLA-Nba was monitored by fluorescence spectrometry (Ex. 350/Em. 420). The rate of appearance of Abz-AG was a measure of proteolytic activity.
# The Abz-AGLA-Nba assay solution was prepared by adding 1 ml of the Abz-AGLA-Nba stock to 19 ml MES substrate buffer and mixed well for at least 2 minutes. Subsequently the thermolysin or variants thereof containing culture supernatants were diluted with MES assay buffer to a concentration of 1-6 μg protein per ml.
# The assay was performed by adding 10 μl of diluted protease solution to each well, followed by the addition of 190 μl Abz-AGLA-Nba assay solution that was pre-equilibrated for at least 15 minutes at 25° C. The solutions were vigorously mixed, and the liberation of Abz-AG by protease cleavage of Abz-AGLA-Nba was monitored by fluorescence spectrometry at 25° C. in kinetic mode with excitation set at 350 nm and emission set at 420 nm. The rate of appearance of Abz-AG was a measure of proteolytic activity in the samples. The protease activity was expressed as RFU (relative fluorescence units·min^−1).
# As described in Example 1, the stability of thermolysin variants was measured by determining the AGLA activity before and after incubation in the presence of TIDE® 2× heavy duty liquid (HDL) detergent at an elevated temperature. The tables contain the relative stability values compared to wild-type thermolysin, which is the quotient of the variant residual activity divided by the wild-type residual activity. A value greater than one indicates higher stability in the presence of detergent. […]
row,Molecule,"PI (relative stability), 25% TIDE 2X with DTPA"
1,B1,1.02
2,B2,1.08
3,B3,1.05
4,B4,1.07
5,B5,1.16
6,B6,1.10
7,B7,1.21
8,B8,1.13
9,B9,1.25
10,B10,1.08
11,B11,1.02
12,B12,1.03
13,B13,1.05
14,B14,1.01
15,B15,1.16
16,B16,1.04
17,B17,1.05
18,B18,1.05
19,B19,1.05
20,B20,1.02
21,B21,1.19
22,B22,1.21
23,B23,1.07
24,B24,1.07
25,B25,1.19
